Source: US20230235304
Substitutions are numbered along the chain they refer to.

Experiments:
Assay in all cases: cell_activity
Conditions in all cases: PAM 5'-GCTG-3'; HEK293T; averaged over AAVS1, VEGFA, EMX1 targets
[1] = system: T1, CRISPR nuclease variant S511R S511R (synthetic construct)
T1 sequence: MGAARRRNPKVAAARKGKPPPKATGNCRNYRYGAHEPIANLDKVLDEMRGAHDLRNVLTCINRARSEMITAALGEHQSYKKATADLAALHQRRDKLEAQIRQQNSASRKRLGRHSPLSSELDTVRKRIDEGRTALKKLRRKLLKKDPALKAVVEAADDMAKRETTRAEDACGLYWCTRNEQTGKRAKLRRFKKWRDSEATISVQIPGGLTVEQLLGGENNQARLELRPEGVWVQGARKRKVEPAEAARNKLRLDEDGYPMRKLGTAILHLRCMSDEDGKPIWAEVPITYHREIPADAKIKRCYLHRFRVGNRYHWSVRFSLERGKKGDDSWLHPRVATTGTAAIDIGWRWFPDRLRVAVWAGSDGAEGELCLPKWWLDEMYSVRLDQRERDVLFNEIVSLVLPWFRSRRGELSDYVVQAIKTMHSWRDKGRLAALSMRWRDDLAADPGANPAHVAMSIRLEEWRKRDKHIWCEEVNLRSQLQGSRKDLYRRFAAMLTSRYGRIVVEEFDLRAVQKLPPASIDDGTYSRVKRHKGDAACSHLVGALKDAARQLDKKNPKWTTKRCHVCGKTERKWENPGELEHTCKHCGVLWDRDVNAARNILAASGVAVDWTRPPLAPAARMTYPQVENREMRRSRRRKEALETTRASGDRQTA

[2] = system: T2, CRISPR nuclease variant L580G,A512R L580G,A512R (synthetic construct)
T2 sequence: T1 sequence with R511S, A512R, L580G

[3] = system: T3, CRISPR nuclease variant S78K,E198R,R354G S78K,E198R,R354G (synthetic construct)
T3 sequence: T1 sequence with S78K, E198R, R354G, R511S

[4] = system: T4, CRISPR nuclease variant D535G D535G (synthetic construct)
T4 sequence: T1 sequence with R511S, D535G

GGUCCCAUCGGAACGGGUUGUGGUUCCGACGGAGGGAUACAUUGGUGGGG / GGAGGGATACATTGGTGGGG / CCCCACCAATGTATCCCTCC [AAVS1 crRNA (Table 5) ; AAVS1 target (Table 5)]
binding signal (fold indels vs WT) [1]: 3.71
binding signal (fold indels vs WT) [2]: 3.75
binding signal (fold indels vs WT) [3]: 4.14
binding signal (fold indels vs WT) [4]: 3.57
